Laboratory results: article PMC12491784, “A Circular RNA Promotes Tumor Metastasis through Stabilizing MSI2 Protein in Pancreatic Ductal Adenocarcinoma”

B1: P1 RNA probe (ssRNA)
RNA: GUGUGCUCCAUAGUUUAUCAAAAG
B2: P2 RNA probe (ssRNA)
RNA: UCCUAUCAAAUUAGUAAACCAAAG
B3: P1-mut RNA probe (ssRNA)
RNA: GUGUGCUCCAAACUUUAUCAAAAG
B4: P2-mut RNA probe (ssRNA)
RNA: UCCUAUCAAAUAACUAAACCAAAG

Legend:
[1] = molecular target: T1, MSI2 (Musashi-2), recombinant (UniProt Q96DH6 1-328); assay: EMSA; EMSA: kit binding buffer (Beyotime GS009), 25 C 1 h, 5% native PAGE; RNA pull-down: 100 pmol biotinylated probe on streptavidin beads, 4 C 4 h; high-stringency; conditions: protein: recombinant; tags: GST; label: 5' biotin
[2] = molecular target: T1, MSI2 (Musashi-2), recombinant; assay: pull-down; EMSA: kit binding buffer (Beyotime GS009), 25 C 1 h, 5% native PAGE; RNA pull-down: 100 pmol biotinylated probe on streptavidin beads, 4 C 4 h; high-stringency; conditions: protein: recombinant; tags: GST; label: 5' biotin

T1 sequence (Q96DH6 whole entry): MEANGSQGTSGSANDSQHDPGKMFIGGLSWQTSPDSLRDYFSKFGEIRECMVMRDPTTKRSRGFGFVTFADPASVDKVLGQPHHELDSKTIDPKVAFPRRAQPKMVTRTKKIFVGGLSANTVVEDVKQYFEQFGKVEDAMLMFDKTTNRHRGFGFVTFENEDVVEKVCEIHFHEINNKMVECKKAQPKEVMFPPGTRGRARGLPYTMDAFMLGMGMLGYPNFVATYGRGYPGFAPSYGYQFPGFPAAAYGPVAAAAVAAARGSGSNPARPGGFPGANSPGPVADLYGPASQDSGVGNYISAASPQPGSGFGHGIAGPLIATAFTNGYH

Binder	binding result [1]	binding result [2]
B1	binds	
B2	binds	
B3		no binding
B4		no binding
